US20200308257A1

Tests used:
Assay in all cases: cell-based or functional assay
[1] = target: H1N1 circulating viruses (n=18) and vaccines strains (n=3)
[2] = target: H3N2 circulating viruses (n=30) and vaccines strains (n=4)
[3] = target: all H3N2 and H1N1 circulating strains and vaccines strains (n=55 viruses)

B1: VIS410 (antibody, V domains shown)
VH: QVQLLETGGGLVKPGQSLKLSCAASGFTFTSYAMHWVRQPPGKGLEWVAVVSYDGNYKYYADSVQGRFTISRDNSKNTLYLQMNSLRAEDTAVYYCAKDSRLRSLLYFEWLSQGYFNPWGQGTTLTVSS
VL: DIQMTQSPSSLSASVGDRVTITCRSSQSITFDYKNYLAWYQQKPGKAPKLLIYWGSYLESGVPSRFSGSGSGTDFTLTISSLQPEDFATYYCQQHYRTPPSFGQGTKVEIK
Work on B1 yielded a Mean IC50, phenotypic IC50 assay [1] of 0.6 µg/mL, a Mean IC50, phenotypic IC50 assay [2] of 1.3 µg/mL and a Median IC50, phenotypic IC50 assay [3] of 0.9 µg/mL.
